Measurements from article PMC9606263, “Polerovirus N-terminal readthrough domain structures reveal molecular strategies for mitigating virus transmission by aphids” (Nature Communications, 2022).

B1: N-terminal portion of the potato leafroll virus readthrough domain (PLRV NRTD; residues 230-458), native (domain or fragment)
chain: HERFIAYVGIPMLTIQARENDDQIILGSLGSQRMKYIEDENQNYTKFSSEYYSQSSMQAVPMYYFNVPKGQWSVDISCEGYQPTSSTSDPNRGRSDGMIAYSNADSDYWNVGEADGVKISKLRNDNTYRQGHPELEINSCHFREGQLLERDATISFHVEAPTDGRFFLVGPAIQKTAKYNYTISYGDWTDRDMELGLITVVLDEHLEGTGSANRVRRPPREGHTYMASP
notes: Readthrough protein (RTP, CP-RTD fusion) of potato leafroll virus, N-terminal portion of the readthrough domain, residues 230-458 of the complete RTP fusion; 6xHis-NusA removed with HRV3C protease; also called WT PLRV ^NRTD; source: E. coli BL21(DE3), purified (nickel column, HiTrap Q, SEC); not shown: 6xHis, N-terminal, cleaved; NusA, N-terminal, cleaved

Columns and labels:
[1] = target: N-terminal portion of the readthrough domain of turnip yellows virus (TuYV NRTD; residues 224-459) (turnip yellows virus); assay: SEC-MALS; loaded at 4 mg/mL on Superdex 200 10/300 Increase; 20 mM HEPES pH 7.5, 150 mM KCl, 1 mM DTT; 0.5 ml/min
[2] = target: the molecule itself; assay: as above

Molecule | stoichiometry N [1] | stoichiometry N [2]
N-terminal portion of the readthrough domain of turnip yellows virus (TuYV NRTD; residues 224-459) (from UniProt P09516 224-459) (domain or fragment) | 2 | –
B1 | – | 2
